Data published in US20240343814A1.
Where a chain is given by its changes, count along the chain named. Blank lines part the entries; values can stand above or below the binder they belong to.

Tests used:
[1] = biological target: Recombinant human his-tagged IGF 1R extracellular domain protein (human) (UniProt P08069); assay: SPR, captured IgG, IGF-1R ECD-his analyte, dissociation pH 6
[2] = biological target: Recombinant human his-tagged IGF 1R extracellular domain protein (human) (UniProt P08069); assay: SPR, captured IgG, IGF-1R ECD-his analyte, dissociation pH 7.4

Kd [1]: 29.9 nM
koff [1]: 0.000129 s⁻¹
kon [1]: 4320 M⁻¹ s⁻¹
B2: VRDN-02568 (antibody, V domains shown)
VH: EVQLVQSGGGLVKPGGSLRLSCAASGFTFSSFHMHWVRQAPGKGLEWISVIHTRGATYYADSVKGRFTISRDNAKNSLYLQMNSLRAEDTAVYYCARLGNFYYGHDVWGQGTTVTVSS
VL: EIVLTQSPGTLSVSPGERATLSCRASQSIGSSLHWYQQKPGQAPRLLIKYASQSLSGIPDRFSGSGSGTDFTLTISRLEPEDFAVYYCHQSSRLPHTFGQGTKVEIK

Kd [1]: 0.036 nM
koff [1]: 1e-06 s⁻¹
kon [1]: 27800 M⁻¹ s⁻¹
Kd [2]: 0.717 nM
koff [2]: 2.74e-05 s⁻¹
kon [2]: 38200 M⁻¹ s⁻¹
B3: VRDN-02523 (antibody, V domains shown)
VH: B2 VH with H33A, H52D, Y103H, H105M
VL: B2 VL

Kd [1]: 1.76 nM
koff [1]: 0.000376 s⁻¹
kon [1]: 214000 M⁻¹ s⁻¹
B4: VRDN-02570 (antibody, V domains shown)
VH: B2 VH with H52D
VL: B2 VL with Y50H

Kd [1]: 0.0262 nM
koff [1]: 1e-06 s⁻¹
kon [1]: 38100 M⁻¹ s⁻¹
Kd [2]: 1.53 nM
koff [2]: 0.000161 s⁻¹
kon [2]: 105000 M⁻¹ s⁻¹
B6: VRDN-02503 (antibody, V domains shown)
VH: B2 VH with T28H, H33A, H52D, H105M
VL: B2 VL

Kd [1]: 0.029 nM
koff [1]: 1e-06 s⁻¹
kon [1]: 34500 M⁻¹ s⁻¹
Kd [2]: 0.102 nM
koff [2]: 1.53e-05 s⁻¹
kon [2]: 150000 M⁻¹ s⁻¹
B11: VRDN-02530 (antibody, V domains shown)
VH: B2 VH with H33A, H52D, H105M
VL: B2 VL with S26H

Kd [1]: 0.0541 nM
koff [1]: 1e-06 s⁻¹
kon [1]: 18500 M⁻¹ s⁻¹
Kd [2]: 3.8 nM
koff [2]: 0.000103 s⁻¹
kon [2]: 27100 M⁻¹ s⁻¹
B12: VRDN-02529 (antibody, V domains shown)
VH: B2 VH with H33A, H52D, H105M
VL: B2 VL with A25H

Kd [1]: 0.0319 nM
koff [1]: 1e-06 s⁻¹
kon [1]: 31300 M⁻¹ s⁻¹
Kd [2]: 0.85 nM
koff [2]: 2.1e-05 s⁻¹
kon [2]: 24700 M⁻¹ s⁻¹
B13: VRDN-02531 (antibody, V domains shown)
VH: B2 VH with H33A, H52D, H105M
VL: B2 VL with Q27H

Kd [1]: 0.0242 nM
koff [1]: 1e-06 s⁻¹
kon [1]: 41400 M⁻¹ s⁻¹
Kd [2]: 0.0069 nM
koff [2]: 1e-06 s⁻¹
kon [2]: 145000 M⁻¹ s⁻¹
B15: VRDN-02520 (antibody, V domains shown)
VH: B2 VH with H33A, H52D, N100H, H105M
VL: B2 VL

Kd [1]: 0.0375 nM
koff [1]: 1e-06 s⁻¹
kon [1]: 26700 M⁻¹ s⁻¹
Kd [2]: 0.0244 nM
koff [2]: 4.1e-06 s⁻¹
kon [2]: 168000 M⁻¹ s⁻¹
B18: VRDN-02502 (antibody, V domains shown)
VH: B2 VH with F27H, H33A, H52D, H105M
VL: B2 VL

Kd [1]: 16.8 nM
koff [1]: 0.00196 s⁻¹
kon [1]: 117000 M⁻¹ s⁻¹
Kd [2]: 2.35 nM
koff [2]: 0.000418 s⁻¹
kon [2]: 178000 M⁻¹ s⁻¹
B24: VRDN-02516 (antibody, V domains shown)
VH: B2 VH with H33A, H52D, A96H, H105M
VL: B2 VL

Kd [1]: 4.58 nM
koff [1]: 0.000147 s⁻¹
kon [1]: 32100 M⁻¹ s⁻¹
Kd [2]: 0.00758 nM
koff [2]: 1e-06 s⁻¹
kon [2]: 132000 M⁻¹ s⁻¹
B28: VRDN-02525 (antibody, V domains shown)
VH: B2 VH with H33A, H52D
VL: B2 VL

Kd [1]: 0.0493 nM
koff [1]: 1e-06 s⁻¹
kon [1]: 20300 M⁻¹ s⁻¹
Kd [2]: 0.519 nM
koff [2]: 4.45e-05 s⁻¹
kon [2]: 85700 M⁻¹ s⁻¹
B32: VRDN-02533 (antibody, V domains shown)
VH: B2 VH with H33A, H52D, H105M
VL: B2 VL with I29H

Kd [1]: 1.48 nM
koff [1]: 0.000507 s⁻¹
kon [1]: 344000 M⁻¹ s⁻¹
B33: VRDN-02564 (antibody, V domains shown)
VH: B2 VH with H33A
VL: B2 VL

The next lines start with the binder.

B1: VRDN-02501 (antibody, V domains shown)
VH: B2 VH with G26H, H33A, H52D, H105M
VL: B2 VL
Kd [1]: 0.0259 nM
koff [1]: 1e-06 s⁻¹
kon [1]: 38600 M⁻¹ s⁻¹
Kd [2]: 0.911 nM
koff [2]: 0.00015 s⁻¹
kon [2]: 165000 M⁻¹ s⁻¹

B5: VRDN-02569 (antibody, V domains shown)
VH: B2 VH with H105M
VL: B2 VL with Y50H
Kd [1]: 1.51 nM
koff [1]: 0.000516 s⁻¹
kon [1]: 342000 M⁻¹ s⁻¹

B7: VRDN-02562 (antibody, V domains shown)
VH: B2 VH with H33A, A96H, H105M
VL: B2 VL
Kd [1]: 1.34 nM
koff [1]: 0.00018 s⁻¹
kon [1]: 135000 M⁻¹ s⁻¹

B8: VRDN-02554 (antibody, V domains shown)
VH: B2 VH with H33A, H105M
VL: B2 VL with Y50H
Kd [1]: 1.53 nM
koff [1]: 0.000152 s⁻¹
kon [1]: 99500 M⁻¹ s⁻¹

B9: VRDN-02563 (antibody, V domains shown)
VH: B2 VH with H33A, G104H, H105M
VL: B2 VL
Kd [1]: 3.46 nM
koff [1]: 0.000353 s⁻¹
kon [1]: 102000 M⁻¹ s⁻¹

B10: VRDN-02521 (antibody, V domains shown)
VH: B2 VH with H33A, H52D, F101H, H105M
VL: B2 VL
Kd [1]: 0.05 nM
koff [1]: 1e-06 s⁻¹
kon [1]: 20000 M⁻¹ s⁻¹
Kd [2]: 1.48 nM
koff [2]: 7.2e-05 s⁻¹
kon [2]: 48500 M⁻¹ s⁻¹

B14: VRDN-02524 (antibody, V domains shown)
VH: B2 VH with H33A, H52D, G104H, H105M
VL: B2 VL
Kd [1]: 1.22 nM
koff [1]: 4.66e-05 s⁻¹
kon [1]: 38300 M⁻¹ s⁻¹
Kd [2]: 0.00752 nM
koff [2]: 1e-06 s⁻¹
kon [2]: 133000 M⁻¹ s⁻¹

B16: VRDN-02558 (antibody, V domains shown)
VH: B2 VH with H105M
VL: B2 VL
Kd [1]: 3.15 nM
koff [1]: 0.00017 s⁻¹
kon [1]: 53900 M⁻¹ s⁻¹

B17: VRDN-02522 (antibody, V domains shown)
VH: B2 VH with H33A, H52D, Y102H, H105M
VL: B2 VL
Kd [1]: 0.0376 nM
koff [1]: 1e-06 s⁻¹
kon [1]: 26600 M⁻¹ s⁻¹
Kd [2]: 0.37 nM
koff [2]: 1.73e-05 s⁻¹
kon [2]: 46700 M⁻¹ s⁻¹

B19: VRDN-02532 (antibody, V domains shown)
VH: B2 VH with H33A, H52D, H105M
VL: B2 VL with S28H
Kd [1]: 0.0292 nM
koff [1]: 1e-06 s⁻¹
kon [1]: 34300 M⁻¹ s⁻¹
Kd [2]: 0.316 nM
koff [2]: 4.08e-05 s⁻¹
kon [2]: 129000 M⁻¹ s⁻¹

B20: VRDN-02518 (antibody, V domains shown)
VH: B2 VH with H33A, H52D, L98H, H105M
VL: B2 VL
Kd [1]: 0.0385 nM
koff [1]: 1e-06 s⁻¹
kon [1]: 26000 M⁻¹ s⁻¹
Kd [2]: 0.549 nM
koff [2]: 6.31e-05 s⁻¹
kon [2]: 115000 M⁻¹ s⁻¹

B21: VRDN-02571 (antibody, V domains shown)
VH: B2 VH with H33A
VL: B2 VL with Y50H
Kd [1]: 2.15 nM
koff [1]: 0.000344 s⁻¹
kon [1]: 160000 M⁻¹ s⁻¹

B22: VRDN-02555 (antibody, V domains shown)
VH: B2 VH with H33A, H52D, A96H, H105M
VL: B2 VL with Y50H
Kd [1]: 0.851 nM
koff [1]: 0.000418 s⁻¹
kon [1]: 491000 M⁻¹ s⁻¹

B23: VRDN-02528 (antibody, V domains shown)
VH: B2 VH with H33A, H52D, H105M
VL: B2 VL with R24H
Kd [1]: 0.0246 nM
koff [1]: 1e-06 s⁻¹
kon [1]: 40600 M⁻¹ s⁻¹
Kd [2]: 0.252 nM
koff [2]: 3.55e-05 s⁻¹
kon [2]: 141000 M⁻¹ s⁻¹

B25: VRDN-02561 (antibody, V domains shown)
VH: B2 VH with H52D
VL: B2 VL
Kd [1]: 1.64 nM
koff [1]: 0.000539 s⁻¹
kon [1]: 329000 M⁻¹ s⁻¹

B26: VRDN-02527 (antibody, V domains shown)
VH: B2 VH with H33A, H52D, H105M, V107H
VL: B2 VL
Kd [1]: 0.0258 nM
koff [1]: 1e-06 s⁻¹
kon [1]: 38800 M⁻¹ s⁻¹
Kd [2]: 0.225 nM
koff [2]: 2.16e-05 s⁻¹
kon [2]: 95900 M⁻¹ s⁻¹

B27: VRDN-02519 (antibody, V domains shown)
VH: B2 VH with H33A, H52D, G99H, H105M
VL: B2 VL
Kd [1]: 16.9 nM
koff [1]: 0.000627 s⁻¹
kon [1]: 37100 M⁻¹ s⁻¹
Kd [2]: 10.5 nM
koff [2]: 0.00366 s⁻¹
kon [2]: 348000 M⁻¹ s⁻¹

B29: VRDN-02553 (antibody, V domains shown)
VH: B2 VH with H52D, H105M
VL: B2 VL with Y50H
Kd [1]: 1.56 nM
koff [1]: 0.000534 s⁻¹
kon [1]: 341000 M⁻¹ s⁻¹

B30: VRDN-02538 (antibody, V domains shown)
VH: B2 VH with H33A, H52D, H105M
VL: B2 VL with K49H
Kd [1]: 0.0463 nM
koff [1]: 1e-06 s⁻¹
kon [1]: 21600 M⁻¹ s⁻¹

B31: VRDN-02517 (antibody, V domains shown)
VH: B2 VH with H33A, H52D, R97H, H105M
VL: B2 VL
Kd [1]: 5.07 nM
koff [1]: 0.000265 s⁻¹
kon [1]: 52300 M⁻¹ s⁻¹
Kd [2]: 10.7 nM
koff [2]: 0.00264 s⁻¹
kon [2]: 247000 M⁻¹ s⁻¹
